2 molecules from publication PMC3954831, “Protection of Cardiomyocytes from the Hypoxia-Mediated Injury by a Peptide Targeting the Activator of G-Protein Signaling 8” (PLoS ONE, 2014) can be followed below.

This assay concerns the target T1, Recombinant human Gβ1γ2 (human, UniProt P62873 1-340; P59768 1-71).
T1 construct: G-protein beta 1 subunit, human, recombinant; G-protein gamma 2 subunit, human, recombinant; Preformed heterodimer bought as such; detected by an anti-Gβ antibody; also called Gβγ; purified Gβγ; source: bought: Calbiochem-Merck Millipore (recombinant)
The assay is described as follows: pull-down; competition: GST-AGS8-C (100 nM) incubated with recombinant human Gβ1γ2 (10 nM) in the presence of rising doses of peptide CP1 or CP9, adsorbed to a glutathione matrix; immunoblot with densitometry, n = 6. As to conditions: both partners purified. A general note: A western blot detects proteins with antibodies after separation by electrophoresis.

B1: AGS8-peptide CP9 (peptide)
peptide: SFVIVDWNKAIPGDVVTGYLVYSASYEDFI
notes: About 97% HPLC purity; source: synthetic peptide (Invitrogen)
With B1, the IC50 (commonly the concentration needed to halve the response being measured) stood at 2.77 µM.

B2: AGS8-peptide CP1 (peptide)
peptide: APRNITVVAMEGCHSFVIVDWNKAIPGDV
notes: as for B1
B2: the IC50 amounted to 6.73 µM.
